According to PMC11040006, “Molecular basis of an atypical dsDNA 5mC/6mA bifunctional dioxygenase CcTet from Coprinopsis cinerea in catalyzing dsDNA 5mC demethylation” (Nucleic Acids Research, 2024):

Tests used:
[1] = biological target: T1, CcTet-ΔN16 (CcTet-Δ16; CcTet) (Coprinopsis cinerea, UniProt A8P1J0); test: X-ray crystallography, […] Å; assay type: binding; details: complex with Mn2+ and 12-bp 5mC-dsDNA; 2 mM NOG in the crystallization mix; 2-oxoglutarate site
T1 construct: gene CC1G_05589; N-terminal 16 residues deleted; His-SUMO1 tag removed by Ulp1; expressed in E. coli BL21(DE3) from pET-SUMO
T1 sequence (A8P1J0 17-430): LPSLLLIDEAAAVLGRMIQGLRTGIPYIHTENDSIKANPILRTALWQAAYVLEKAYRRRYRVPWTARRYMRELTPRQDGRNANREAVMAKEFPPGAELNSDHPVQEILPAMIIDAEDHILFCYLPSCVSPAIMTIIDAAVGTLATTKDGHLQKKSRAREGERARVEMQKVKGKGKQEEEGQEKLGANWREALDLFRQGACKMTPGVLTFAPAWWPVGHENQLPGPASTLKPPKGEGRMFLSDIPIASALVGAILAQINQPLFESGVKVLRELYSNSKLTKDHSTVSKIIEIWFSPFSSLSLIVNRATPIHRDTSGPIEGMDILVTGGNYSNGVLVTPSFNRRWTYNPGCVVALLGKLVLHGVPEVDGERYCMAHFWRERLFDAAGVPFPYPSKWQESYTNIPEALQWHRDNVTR

CcTet-ΔN16 R92A = biological target: T2, CcTet-ΔN16 R92A (Coprinopsis cinerea, UniProt A8P1J0 17-430, R92A); test: MST; MST: NT-495 labeled protein, room temperature, 5 min incubation, buffer not stated (protein gel-filtration buffer 20 mM HEPES pH 7.0, 100 mM NaCl, 1 mM DTT). Crystals: 2 mM NOG, 1 mM MnCl2, protein:DNA 1:1.2, 20 mM sodium formate, 10% PEG8000, 277 K; details: protein: recombinant; tags: N-terminal His-Sumo1, removed by Ulp1; blunt
T2 sequence: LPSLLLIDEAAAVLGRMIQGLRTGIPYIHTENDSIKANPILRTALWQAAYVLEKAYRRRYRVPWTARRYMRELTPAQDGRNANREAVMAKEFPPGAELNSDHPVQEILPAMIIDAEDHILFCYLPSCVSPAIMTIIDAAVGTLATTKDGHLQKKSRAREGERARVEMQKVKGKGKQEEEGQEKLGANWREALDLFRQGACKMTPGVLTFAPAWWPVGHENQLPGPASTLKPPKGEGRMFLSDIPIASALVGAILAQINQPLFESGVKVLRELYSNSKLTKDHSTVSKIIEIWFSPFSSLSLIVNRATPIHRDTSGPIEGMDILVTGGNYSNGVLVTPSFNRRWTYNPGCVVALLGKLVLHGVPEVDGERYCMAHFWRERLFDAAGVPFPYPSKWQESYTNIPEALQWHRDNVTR

CcTet-ΔN16 H234A = biological target: T3, CcTet-ΔN16 H234A (Coprinopsis cinerea, UniProt A8P1J0 17-430, H234A); test: as above; details: protein: recombinant; tags: N-terminal His-Sumo1, removed by Ulp1; blunt
T3 sequence: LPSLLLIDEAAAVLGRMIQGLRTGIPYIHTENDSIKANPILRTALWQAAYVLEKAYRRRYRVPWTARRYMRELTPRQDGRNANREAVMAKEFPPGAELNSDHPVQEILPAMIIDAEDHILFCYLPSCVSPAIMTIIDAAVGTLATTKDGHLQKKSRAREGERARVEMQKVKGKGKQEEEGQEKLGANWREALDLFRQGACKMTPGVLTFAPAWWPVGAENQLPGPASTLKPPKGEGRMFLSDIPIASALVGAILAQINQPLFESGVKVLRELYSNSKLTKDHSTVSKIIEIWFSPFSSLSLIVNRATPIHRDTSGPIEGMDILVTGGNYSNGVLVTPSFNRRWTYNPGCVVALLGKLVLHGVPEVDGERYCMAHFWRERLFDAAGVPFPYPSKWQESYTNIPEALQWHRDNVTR

CcTet-ΔN16 R96A = biological target: T4, CcTet-ΔN16 R96A (Coprinopsis cinerea, UniProt A8P1J0 17-430, R96A); test: as above; details: protein: recombinant; tags: N-terminal His-Sumo1, removed by Ulp1; blunt
T4 sequence: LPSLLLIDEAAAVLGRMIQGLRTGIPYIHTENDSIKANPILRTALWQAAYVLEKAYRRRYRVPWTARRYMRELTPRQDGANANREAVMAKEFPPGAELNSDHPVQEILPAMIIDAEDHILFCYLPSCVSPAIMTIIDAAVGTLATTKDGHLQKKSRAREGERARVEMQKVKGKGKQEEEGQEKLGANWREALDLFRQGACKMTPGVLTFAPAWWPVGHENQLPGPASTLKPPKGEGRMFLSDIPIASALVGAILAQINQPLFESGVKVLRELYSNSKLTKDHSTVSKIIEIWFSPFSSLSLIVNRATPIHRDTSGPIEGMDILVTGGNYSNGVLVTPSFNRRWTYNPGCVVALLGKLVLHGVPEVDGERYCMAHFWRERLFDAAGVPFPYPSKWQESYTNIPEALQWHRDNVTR

CcTet-ΔN16 = biological target: T5, CcTet-ΔN16 (Coprinopsis cinerea, UniProt A8P1J0 17-430); test: X-ray crystallography (2.3 Å); Mn2+, N-oxalylglycine (NOG); MST: NT-495 labeled protein, room temperature, 5 min incubation, buffer not stated (protein gel-filtration buffer 20 mM HEPES pH 7.0, 100 mM NaCl, 1 mM DTT). Crystals: 2 mM NOG, 1 mM MnCl2, protein:DNA 1:1.2, 20 mM sodium formate, 10% PEG8000, 277 K; details: protein: recombinant; tags: N-terminal His-Sumo1, removed by Ulp1; blunt; as printed, T of strand 2 (position 7) lies opposite 5mC6 (mismatch)
T5 sequence: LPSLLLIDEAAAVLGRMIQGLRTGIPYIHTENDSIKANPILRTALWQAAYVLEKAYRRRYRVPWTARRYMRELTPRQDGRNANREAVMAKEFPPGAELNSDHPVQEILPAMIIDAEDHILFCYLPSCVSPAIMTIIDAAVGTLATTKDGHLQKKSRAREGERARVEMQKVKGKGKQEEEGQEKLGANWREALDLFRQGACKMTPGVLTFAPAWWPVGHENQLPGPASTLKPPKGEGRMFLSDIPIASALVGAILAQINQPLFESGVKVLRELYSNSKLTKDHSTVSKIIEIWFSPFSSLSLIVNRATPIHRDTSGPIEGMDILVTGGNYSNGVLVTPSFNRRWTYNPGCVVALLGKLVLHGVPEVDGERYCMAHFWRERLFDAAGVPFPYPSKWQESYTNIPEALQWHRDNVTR

## O=C(O)CNC(=O)C(=O)O [N-oxalylglycine]
[1]
  X-ray crystallography, 2.3 Å: NOG was stabilized through hydrophilic and hydrophobic interactions with several nearby residues

B1: 19-bp 5mC-dsDNA (dsDNA)
DNA 1: TCTGGAACGGAATTCTTCA
DNA 2: TGAAGAATTCCGTTCCAGA
modifications: 5mC at position 8 of strand 1
CcTet-ΔN16 R92A
  binding result: no binding
CcTet-ΔN16 H234A
  binding result: no binding
CcTet-ΔN16 R96A
  binding result: no binding

B2: 12-bp 5mC-dsDNA (dsDNA)
DNA 1: CGATCCGCTACG
DNA 2: CGTAGCTGATCG
modifications: 5mC at position 6 of strand 1
CcTet-ΔN16
  binding result: binds
